# B1: Limonene-1,2-epoxide hydrolase, Q9ZAG3 (parent)
# chain: MTSKIEQPRWASKDSAAGAASTPDEKIVLEFMDALTSNDAAKLIEYFAEDTMYQNMPLPPAYGRDAVEQTLAGLFTVMSIDAVETFHIGSSNGLVYTERVDVLRALPTGKSYNLSILGVFQLTEGKITGWRDYFDLREFEEAVDLPLRG
# Variants of: B1
# Conditions: Rhodococcus erythropolis; pH 7.1; Thermal; Fluorescence; Potassium phosphate 50mM; transition: 2; reversible: no; structure 1NWW; whole UniProt chain shown
Variant,Tm [°C],"change of melting temperature, mutant - wild type (higher = more stable) [°C]"
K42R,47.5,-1.3
A16R,48.3,-0.5
I44C E68C,56,7.2
K13P,44.8,-4
N92K,56.1,7.3
N92R,50.6,1.8
T85P,42.8,-6
T85L,51.3,2.5
T85V,55.6,6.8
T85I,54.6,5.8
Y112C A142C,56,7.2
M52C G129C,40,-8.8
L106R,46.5,-2.3
Y62W,48.8,0
A20P,46.7,-2.1
S111K,46.5,-2.3
S111R,48.8,0
K4C A82C,59,10.2
S12R,49,0.2
E68Q,49.3,0.5

Variant,Tm [°C],"change of melting temperature, mutant - wild type (higher = more stable) [°C]"
A105C V143C,46.5,-2.3
A19K,51.3,2.5
A17C N92C,64,15.2
A48C K126C,53,4.2
I27M,47,-1.8
D24C L122C,36,-12.8
S15P,49,0.2
S15K,48.5,-0.3
A142R,46,-2.8
Y96F,51.6,2.8
P57C D135C,35,-13.8
I127F,46.3,-2.5
V102C,62,13.2
G89C S91C,66,17.2
D50P,42.8,-6
K110R,47.3,-1.5
D65E,49.3,0.5
M32C V83C,44,-4.8
D24R,45,-3.8
L122F,41.3,-7.5

Variant,Tm [°C],"change of melting temperature, mutant - wild type (higher = more stable) [°C]"
E45K,50.8,2
E45R,47.8,-1
Q121V,38.8,-10
I5C E84C,64,15.2
G18N,49.1,0.3
A72R,47,-1.8
T76K,50.3,1.5
L94F,48.8,0
D33K,47.3,-1.5
D33R,46.5,-2.3
A66P,49.6,0.8
A41S,49.1,0.3
A41R,48.8,0
E124K,47.5,-1.3
E124R,46,-2.8
E124D,50.1,1.3
A17C L94C,56,7.2
Q69R,49.1,0.3

# Source: FireProtDB (doi:10.1093/protein/gzt061)
